From publication PMC11415531 (Synthetic and Systems Biotechnology, 2024)

Molecular target: the molecule itself
Test: crystal structure

B1: S-adenosyl-L-methionine-dependent methyltransferase RdmB from Streptomyces purpurascens (enzyme)
chain: MSSSSPGEPLEPTDQDLDVLLKNLGNLVTPMALRVAATLRLVDHLLAGADTLAGLADRTDTHPQALSRLVRHLTVVGVLEGGEKQGRPLRPTRLGMLLADGHPAQQRAWLDLNGAVSHADLAFTGLLDVVRTGRPAYAGRYGRPFWEDLSADVALADSFDALMSCDEDLAYEAPADAYDWSAVRHVLDVGGGNGGMLAAIALRAPHLRGTLVELAGPAERARRRFADAGLADRVTVAEGDFFKPLPVTADVVLLSFVLLNWSDEDALTILRGCVRALEPGGRLLVLDRADVEGDGADRFFSTLLDLRMLTFMGGRVRTRDEVVDLAGSAGLALASERTSGSTTLPFDFSILEFTAVSEEAAPAAQASEALPAQE
- binding result: binds
